According to paper PMC5573156 (Developmental cell, 2017):
Read-outs that look alike come from different tables or passages of the source.

Columns and labels:
[1] = target: Kip3_(448) (S. cerevisiae) (UniProt P53086); test: BLI
[2] = target: Kip3_(438) (S. cerevisiae) (UniProt P53086); test: BLI
[3] = target: Kip3_(438)-L11^KHC (S. cerevisiae) (UniProt P53086); test: BLI
[4] = target: microtubules polymerized from bovine brain tubulin (bovine) (UniProt Q6B856); test: single-molecule TIRF motility assay
Sequence of microtubules polymerized from bovine brain tubulin (bovine) (Q6B856 whole entry, looked up): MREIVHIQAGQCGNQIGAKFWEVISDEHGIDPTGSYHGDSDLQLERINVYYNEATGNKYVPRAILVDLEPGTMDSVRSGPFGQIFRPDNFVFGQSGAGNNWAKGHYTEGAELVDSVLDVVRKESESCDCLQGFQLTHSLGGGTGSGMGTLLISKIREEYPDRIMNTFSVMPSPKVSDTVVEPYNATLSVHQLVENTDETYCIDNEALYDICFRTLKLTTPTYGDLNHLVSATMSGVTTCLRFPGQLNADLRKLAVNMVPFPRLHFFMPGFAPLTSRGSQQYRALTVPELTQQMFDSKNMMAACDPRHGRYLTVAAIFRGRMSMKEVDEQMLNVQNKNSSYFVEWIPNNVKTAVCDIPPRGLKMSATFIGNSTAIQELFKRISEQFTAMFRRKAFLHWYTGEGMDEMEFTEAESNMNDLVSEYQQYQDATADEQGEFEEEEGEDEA

[5] = target: bovine brain tubulin, unpolymerized (soluble αβ-tubulin dimer) (bovine) (UniProt Q6B856)
[6] = target: microtubules polymerized from bovine brain tubulin (bovine) (UniProt Q6B856); test: single-molecule TIRF motility assay; remark: listed apart in the source
[7] = target: microtubules polymerized from bovine brain tubulin (bovine) (UniProt Q6B856); test: single-molecule TIRF motility assay; remark: listed apart in the source
[8] = target: GTPγS-stabilized Tub1^D118A yeast microtubules (S. cerevisiae, UniProt P09733 1-447; P02557 1-457, D118A); test: TIRF fluorescence intensity on immobilised microtubules
Sequence of GTPγS-stabilized Tub1^D118A yeast microtubules (P09733 whole entry D118A, chain 1 of 2): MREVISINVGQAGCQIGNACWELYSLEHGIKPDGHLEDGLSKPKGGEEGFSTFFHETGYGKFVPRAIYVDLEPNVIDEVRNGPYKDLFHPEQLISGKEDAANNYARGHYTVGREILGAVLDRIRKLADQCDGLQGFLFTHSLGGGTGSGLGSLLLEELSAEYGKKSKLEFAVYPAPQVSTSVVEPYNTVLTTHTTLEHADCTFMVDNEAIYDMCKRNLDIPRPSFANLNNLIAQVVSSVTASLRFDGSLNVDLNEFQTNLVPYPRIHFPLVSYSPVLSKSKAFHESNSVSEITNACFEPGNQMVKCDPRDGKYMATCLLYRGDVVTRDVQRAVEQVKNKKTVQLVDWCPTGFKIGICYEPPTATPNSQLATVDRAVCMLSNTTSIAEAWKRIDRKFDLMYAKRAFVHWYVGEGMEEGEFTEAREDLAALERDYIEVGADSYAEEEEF
Sequence of GTPγS-stabilized Tub1^D118A yeast microtubules (P02557 whole entry, stated change not applied, chain 2 of 2): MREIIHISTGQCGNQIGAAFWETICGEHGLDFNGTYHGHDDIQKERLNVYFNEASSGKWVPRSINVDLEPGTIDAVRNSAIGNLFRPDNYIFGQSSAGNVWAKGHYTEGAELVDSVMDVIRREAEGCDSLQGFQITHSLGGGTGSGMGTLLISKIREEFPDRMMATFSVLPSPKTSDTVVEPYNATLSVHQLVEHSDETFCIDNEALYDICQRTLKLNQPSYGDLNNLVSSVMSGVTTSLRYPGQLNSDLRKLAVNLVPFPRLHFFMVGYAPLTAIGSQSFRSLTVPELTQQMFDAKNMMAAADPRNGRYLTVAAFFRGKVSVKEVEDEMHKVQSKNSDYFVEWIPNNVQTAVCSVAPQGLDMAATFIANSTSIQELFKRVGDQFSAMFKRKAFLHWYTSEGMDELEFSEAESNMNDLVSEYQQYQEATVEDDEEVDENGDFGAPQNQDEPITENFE

## bovine brain tubulin, unpolymerized (soluble αβ-tubulin dimer) (from UniProt Q6B856 1-445) (complex)
[1]
  residence time (koff^-1) with ADP: 35.7 s
[2]
  lifetime of the complex: 48 s
[3]
  fold change in tubulin binding affinity, Kip3 438 over Kip3 438-L11KHC: 7 fold

## Kip3FL-L2^KHC (from UniProt P53086 1-805)
[4]
  plus-end dwell time: 9.3 s

## KHC560-L11^Kip3 (from UniProt P33176 1-560)
[5]
  steady-state ATPase: decrease of the KM for tubulin against kinesin-1: 9.4 fold

## KHC560 with Kip3 Loop11 and Loop2 (from UniProt P33176 1-560)
[4]
  plus-end residence time: 52.1 s

B1: Kip3FL (full-length Kip3, budding yeast kinesin-8) (natural protein, S. cerevisiae, UniProt P53086 1-805, looked up)
chain: MNVPETRQSSIVVAIRVRPFTSMEKTRLVNEASGAEANFPGLGDSSLILPMSNNSDSDIDIDAEEGSTRSKRNSLLRRKVIRPEGIRKIVDCVDDRMLIFDPADRNPLNKVSDQVLNSMRARATKATASSINNSNATNKFSSQRRRHGGEIKFVFDKLFDETSSQARVYKETTSPLLDSVLDGFNSTVFAYGATGCGKTYTVSGTPSQPGIIFLAMEELFNKITDLKDEKDFEISLSYLEIYNERIRDLLKPETPSKRLVIREDTQNHIKVANLSYHHPNTVEDVMDLVVQGNINRTTSPTEANEVSSRSHAVLQIHIMQTNKLVDLTSQHTFATLSIIDLAGSERAAATRNRGIRLHEGANINRSLLALGNCINALCLNDGSRSCHIPYRDSKLTRLLKFSLGGNCKTVMIVCISPSSSHYDETLNTLKYANRAKEIKTKIIRNQQSLSRHVGSYLKMITEQKRQIEELREREEKMISLKLTKYKLNKEKIQLAINECVNRVQQTYAGVETYQVAKTLKSLILCKRRFLQMVKLEVDNLILLFEREESTAAEMQPVISNCRMISGQLYNKIHELEMKFDETDTLSSVIHQVHSIDLNKLREMEDWDETYDLVYLESCLNQISELQRNEILVNSSIMTEKLMSDPGLNSRFKFLSKWLMNRTPNIESIIQDLVHIDEEFESFARTFIANPDSNFTNTNINIINTTAADLAVPAETLQRQNFSQKKVKWTSPDLSPSPMIEPQPELEPELHQDQDAIASEVDVSMQDTTFNEQGPSTPSAPTTAVPRRKMRSSLLTHQSLLATARK
modifications: TMR (HALO-TMR) on the HALO tag where labelled
[6]
  plus-end dwell time: 38.2 s
[7]
  plus-end dwell time: 52.9 s
[8]
  binding result: binds
